Test results from PMC10360031.

Target: cell-surface vimentin (CSV) on mouse embryonic fibroblasts mEF +/+ (mouse (endogenous in mEF)) (UniProt P20152)
Assay: AFM single-molecule force spectroscopy

Row | Substance | mean rupture force at 5 um/s [pN] | binding probability (specific adhesion events) (% of force curves)
1 | Brazil P.1 RBD (from UniProt P0DTC2) (domain or fragment) | 31.3 | 
2 | South Africa B.1.135 RBD (from UniProt P0DTC2) (domain or fragment) | 25.8 | 
3 | wild-strain SARS-CoV-2 spike protein RBD (from UniProt P0DTC2) (domain or fragment) |  | < 10
